Measurements reported in publication PMC10197130, “Disulfide-Bond-Induced Structural Frustration and Dynamic Disorder in a Peroxiredoxin from MAS NMR” (Journal of the American Chemical Society, 2023).

Experiments:
Tsa1 S78D mutant (yeast) = assay: SEC; size-exclusion chromatography of the S78D mutant (Figure S2C)
[1] = target: the molecule itself; assay: SEC-MALS; Superdex Increase 200 10/300 GL, phosphate buffer (PBS or 50 mM KPi KCl pH 7.4), RT (ca. 297 K); decamer also reinjected alone, with TCEP and after H2O2 treatment
[2] = target: the molecule itself; assay: methyl-detected diffusion-ordered NMR spectroscopy (DOSY); solution, deuterated Ile/Leu/Val methyl-labeled sample, series from 25 to 60 °C; temperatures above the midpoint at ca. 315 K

Row | stoichiometry N (Tsa1 S78D mutant (yeast)) | Molecule | stoichiometry N [1] | stoichiometry N [2]
1 | 2 | Tsa1 S78D mutant (enzyme) | – | –
2 | – | Tsa1 wild type (2-Cys peroxiredoxin from yeast) (enzyme, UniProt P34760 1-196, looked up, disulfide bond between Cys47 (CP) of one subunit and Cys170 (CR) of another subunit in the oxidized state (as purified or after H2O2); free thiols in the reduced state (TCEP or DTT), Tsa1, 2-Cys peroxiredoxin from yeast, wild type, plasmid pET19b-Tsa1 corresponding to UniProt entry P34760, codon-optimized; No removal of the His tag is described; Decamer of five dimers (ca. 216 kDa) at ambient temperature; also called Tsa1^WT; Tsa1^ox; source: E. coli BL21(DE3), purified (Ni2+-HisTrap, gel filtration on Superdex S200 increase); copies: 10) MVAQVQKQAPTFKKTAVVDGVFDEVSLDKYKGKYVVLAFIPLAFTFVCPTEIIAFSEAAKKFEEQGAQVLFASTDSEYSLLAWTNIPRKEGGLGPINIPLLADTNHSLSRDYGVLIEEEGVALRGLFIIDPKGVIRHITINDLPVGRNVDEALRLVEAFQWTDKNGTVLPCNWTPGAATIKPTVEDSKEYFEAANK | 10 | 2
